Read-outs that look alike come from different tables or passages of the source.
Tests used:
[1] = molecular target: West Nile virus strain USA99b (strain 385-99), whole virus (West Nile virus strain 385-99 (USA99b))
[2] = molecular target: West Nile virus strain USA99b (strain 385-99), whole virus (West Nile virus strain 385-99 (USA99b)); test: ELISA on irradiated WNV; IgG1 at 0.000 µg/ml (no antibody)
[3] = molecular target: West Nile virus strain USA99b (strain 385-99), whole virus (West Nile virus strain 385-99 (USA99b)); test: ELISA on irradiated WNV; IgG1 at 2.500 µg/ml
[4] = molecular target: West Nile virus strain USA99b (strain 385-99), whole virus (West Nile virus strain 385-99 (USA99b)); test: cell-based or functional assay
[5] = molecular target: West Nile virus strain USA99b (strain 385-99), whole virus (West Nile virus strain 385-99 (USA99b)); test: ELISA on irradiated WNV; IgG1 at 0.078 µg/ml
[6] = molecular target: West Nile virus strain USA99b (strain 385-99), whole virus (West Nile virus strain 385-99 (USA99b)); test: ELISA on irradiated WNV; IgG1 at 0.630 µg/ml
[7] = molecular target: West Nile virus strain USA99b (strain 385-99), whole virus (West Nile virus strain 385-99 (USA99b)); test: ELISA on irradiated WNV; IgG1 at 10.000 µg/ml
[8] = molecular target: West Nile virus strain USA99b (strain 385-99), whole virus (West Nile virus strain 385-99 (USA99b)); test: ELISA on irradiated WNV; IgG1 at 5.000 µg/ml
[9] = molecular target: West Nile virus strain USA99b (strain 385-99), whole virus (West Nile virus strain 385-99 (USA99b)); test: ELISA on irradiated WNV; IgG1 at 0.310 µg/ml
[10] = molecular target: West Nile virus strain USA99b (strain 385-99), whole virus (West Nile virus strain 385-99 (USA99b)); test: ELISA on irradiated WNV; IgG1 at 0.039 µg/ml
[11] = molecular target: West Nile virus strain USA99b (strain 385-99), whole virus (West Nile virus strain 385-99 (USA99b)); test: ELISA on irradiated WNV; IgG1 at 1.250 µg/ml
[12] = molecular target: West Nile virus strain USA99b (strain 385-99), whole virus (West Nile virus strain 385-99 (USA99b)); test: ELISA on irradiated WNV; IgG1 at 0.160 µg/ml (printed 0.1.60)
[13] = molecular target: West Nile virus strain USA99b (strain 385-99), whole virus (West Nile virus strain 385-99 (USA99b)); test: ELISA on irradiated WNV; IgG1 supernatant diluted 1:25
[14] = molecular target: West Nile virus strain USA99b (strain 385-99), whole virus (West Nile virus strain 385-99 (USA99b)); test: ELISA on irradiated WNV; IgG1 supernatant diluted 1:125 (printed 1.125)
[15] = molecular target: West Nile virus strain USA99b (strain 385-99), whole virus (West Nile virus strain 385-99 (USA99b)); test: ELISA on irradiated WNV; IgG1 supernatant diluted 1:5
[16] = molecular target: West Nile virus strain USA99b (strain 385-99), whole virus (West Nile virus strain 385-99 (USA99b)); test: cell-based or functional assay; remark: listed apart in the source
[17] = molecular target: West Nile virus TUN97 (strain paH001) (West Nile virus strain paH001); test: cell-based or functional assay
[18] = molecular target: West Nile virus FRA00 (strain PaAn001) (West Nile virus strain PaAn001); test: cell-based or functional assay
[19] = molecular target: West Nile virus MAD78 (strain DakAnMg798) (West Nile virus strain DakAnMg798); test: cell-based or functional assay
[20] = molecular target: West Nile virus CAR82 (strain ArB3573/82) (West Nile virus strain ArB3573/82); test: cell-based or functional assay
[21] = molecular target: West Nile virus SEN90 (strain ArD-76104) (West Nile virus strain ArD-76104); test: cell-based or functional assay
[22] = molecular target: West Nile virus strain USA99b (strain 385-99), whole virus (West Nile virus strain 385-99 (USA99b)); test: ELISA on irradiated WNV; IgG1 at 20.000 µg/ml
[23] = molecular target: West Nile virus strain USA99b (strain 385-99), whole virus (West Nile virus strain 385-99 (USA99b)); remark: listed apart in the source

B1: CR4353 (antibody, V domains shown)
VH: QVQLVESGGGVVQPGRSLRLSCAASGFTFSNYAMHWVRQAPGKGLEWVAVISYDGGNKYYADSVKGRFTMSRDNSKNTLYLQMNSLRAEDTAVYYCARDFWSGYSMVDSYYYYMDVWGQGTTVTVSS
VL: ETTLTQSPGTLSLSPGERATLSCRASQSVSNTFLAWYQQKPGQAPRLLIYGASSRATGIPDRFSGSGSGTDFTLTISRLEPEDFAAYYCQQYGSSLTFGPGTKVDIKR
- Kd [1]: 6.5 nM
- OD 492nm [2]: 0.003 OD 492nm
- OD 492nm [3]: 1.43 OD 492nm
- PRNT50 [4]: 0.026 µg/mL
- PRNT90 [4]: 36.4 µg/mL
- OD 492nm [5]: 0.734 OD 492nm
- OD 492nm [6]: 1.33 OD 492nm
- OD 492nm [7]: 1.57 OD 492nm
- OD 492nm [8]: 1.55 OD 492nm
- OD 492nm [9]: 1.17 OD 492nm
- OD 492nm [10]: 0.595 OD 492nm
- OD 492nm [11]: 1.42 OD 492nm
- OD 492nm [12]: 1.07 OD 492nm

B2: CR4361 (antibody, V domains shown)
VH: EVQLVQSGAEVKKPGESLKISCKASGFSFSTYWIGWVRQMPGKGLEWMGIIYPADSDTRYSPSFQGQVTISADKSISTAYLQWSSLKASDTAMYYCARLRGPYYDFWNGYRETHDAFNVWGQGTMVTVSS
VL: DVVMTQSPDSLAVSLGERATINCKSSQNILDNSDNKNFLAWYQQKPGQPPKLLIYWASARESGVPDRFSGSGSGTDFTLTISSLQAEDVALYYCQQYYNTPITFGQGTRLEIKR
- PRNT50 [4]: 2.03 µg/mL
- PRNT90 [4]: > 100 µg/mL

B3: CR4374 (antibody, V domains shown)
VH: QITLKESGPTLVKPTQTLTLTCTFSGFSLSTSGVGVGWIRQPPGKALEWLAVIYWNDDKLYRPSLKSRLTITKDTSKNQVVLTMTKMDPVDTATYYCAHRHRYYDISGYYRLFSDAFDIWGQGTMVTVSS
VL: QSVLTQPPSVSGAPGQRVTISCTGSSSNIGAGYDVHWYQQLPGTAPKLLIYGNSNRPSGVPDRFSGSKSGTSASLAITGLQAEDEADYYCQSYDSSLSGSVFGGGTKLTVLG
- Kd [1]: 56 nM
- OD 492nm [2]: 0.003 OD 492nm
- OD 492nm [3]: 1.58 OD 492nm
- PRNT50 [4]: 0.18 µg/mL
- PRNT90 [4]: 0.95 µg/mL
- OD 492nm [5]: 0.729 OD 492nm
- OD 492nm [6]: 1.45 OD 492nm
- OD 492nm [13]: 2.27 OD 492nm
- OD 492nm [7]: 1.72 OD 492nm
- OD 492nm [8]: 1.65 OD 492nm
- OD 492nm [14]: 2.12 OD 492nm
- OD 492nm [9]: 1.24 OD 492nm
- OD 492nm [15]: 2.32 OD 492nm
- OD 492nm [10]: 0.458 OD 492nm
- OD 492nm [11]: 1.5 OD 492nm
- OD 492nm [12]: 0.997 OD 492nm
- PRNT50 [16]: 0.17
- PRNT90 [16]: 0.82
- PRNT50 [17]: 0.03
- PRNT90 [17]: 0.22
- PRNT50 [18]: 0.11
- PRNT90 [18]: 1.36
- PRNT50 [19]: 0.12
- PRNT90 [19]: 4.12
- PRNT50 [20]: 0.14
- PRNT90 [20]: 2.9
- PRNT50 [21]: 0.29
- PRNT90 [21]: 3.92
- OD 492nm [22]: 1.69 OD 492nm

B4: CR5074 (antibody, V domains shown)
VH: QITLKESGPTLVKPTQTLTLTCTFSGFSLSTSGVGVGWIRQPPGKALEWLAVIYWNDDKLYRPSLKSRLTITKDTSKNQVVLTMTKMDPVDTATYYCAHRHRYYDISGYYRLFSDAFDIWGQGTMVTVSS
VL: QSVLTQPPSVSGAPGQRVTISCTGSSSNIGTGYDVHWYQQLPGTAPKLLIYADTNRPSGVPDRFSGSKSGTSASLAITGVQAEDEADYYCQSYDTSLTGWVFGGGTKVTVLG
- Kd [23]: 3.9 nM
- PRNT50 [4]: 0.013 µg/mL
- PRNT90 [4]: 0.067 µg/mL

B5: CR5080 (antibody, V domains shown)
VH: QITLKESGPTLVKPTQTLTLTCTFSGFSLSTSGVGVGWIRQPPGKALEWLAVIYWNDDKLYRPSLKSRLTITKDTSKNQVVLTMTKMDPVDTATYYCAHRHRYYDISGYYRLFSDAFDIWGQGTMVTVSS
VL: QSVLTQPPSVSGAPGQRVTISCTGSSSNIGAGYDVHWYQQLPGTAPKLLIYGNSNRPSGVPDRFSGSKSGTSASLAITGLQAEDEADYYCQSYDSSLSGWAFGGGTKLTVLG
- Kd [23]: 2.7 nM
- PRNT50 [4]: 0.016 µg/mL
- PRNT90 [4]: 0.08 µg/mL

B6: CR5085 (antibody, V domains shown)
VH: QITLKESGPTLVKPTQTLTLTCTFSGFSLSTSGVGVGWIRQPPGKALEWLAVIYWNDDKLYRPSLKSRLTITKDTSKNQVVLTMTKMDPVDTATYYCAHRHRYYDISGYYRLFSDAFDIWGQGTMVTVSS
VL: QSVVTQPPSVSGAPGQRVTISCTGSSSNIGAGYDVHWYQQLPGTAPKLLIYGNSNRPSGVPDRFSGSKSGTSASLAITGLQAEDETDYYCQSYDSSLNGWVFGGGTKLTVLG
- Kd [23]: 3.7 nM
- PRNT50 [4]: 0.015 µg/mL
- PRNT90 [4]: 0.077 µg/mL

B7: CR5088 (antibody, V domains shown)
VH: QITLKESGPTLVKPTQTLTLTCTFSGFSLSTSGVGVGWIRQPPGKALEWLAVIYWNDDKLYRPSLKSRLTITKDTSKNQVVLTMTKMDPVDTATYYCAHRHRYYDISGYYRLFSDAFDIWGQGTMVTVSS
VL: QSVVTQPPSVSGAPGQRITISCTGSSSNIGAGYDVHWYQQLPGTAPKFLIYGNSNRPSGVPDRFSGSKSGTSASLAITGLQAEDEADYYCQSYDSSLSGWVFGGGTKLTVLG
- Kd [23]: 1.7 nM
- PRNT50 [4]: 0.017 µg/mL
- PRNT90 [4]: 0.087 µg/mL

Source: EP1828247B1
